For this experiment, the target named is MyD88 (myeloid differentiation primary response 88), endogenous in mouse bone marrow-derived macrophages (mouse (endogenous in BMDMs)), P22366. Briefly: cross-linking; WT BMDMs stimulated with 1 µg/mL poly(I:C) for the indicated times (or primed with LPS, positive control); cleared freeze-thaw lysate with 2 mM DSS, 2 h, room temperature; SDS-PAGE, anti-MyD88 blot. The following applies: remark: other sources report otherwise.

A word on the stoichiometry N: it is a count of units in the complex or per binding partner.

B1: MyD88 (myeloid differentiation primary response 88), endogenous in mouse bone marrow-derived macrophages, P22366 1-296 (natural protein)
chain: MSAGDPRVGSGSLDSFMFSIPLVALNVGVRRRLSLFLNPRTPVAADWTLLAEEMGFEYLEIRELETRPDPTRSLLDAWQGRSGASVGRLLELLALLDREDILKELKSRIEEDCQKYLGKQQNQESEKPLQVARVESSVPQTKELGGITTLDDPLGQTPELFDAFICYCPNDIEFVQEMIRQLEQTDYRLKLCVSDRDVLPGTCVWSIASELIEKRCRRMVVVVSDDYLQSKECDFQTKFALSLSPGVQQKRLIPIKYKAMKKDFPSILRFITICDYTNPCTKSWFWTRLAKALSLP
Regarding B1, the stoichiometry N worked out at 2.

(Values after paper PMC12523770.)
